T1: His-tagged PTTG1
T1 chain: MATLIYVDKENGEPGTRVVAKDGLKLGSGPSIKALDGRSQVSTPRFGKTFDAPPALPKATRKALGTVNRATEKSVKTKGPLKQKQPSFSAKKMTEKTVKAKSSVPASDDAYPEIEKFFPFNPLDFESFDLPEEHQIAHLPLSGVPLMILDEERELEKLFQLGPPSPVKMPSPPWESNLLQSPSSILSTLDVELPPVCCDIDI


Assays:
[1] = molecular target: T2, BSA (bovine, UniProt P02769 25-607); test: protein microarray probed with biotinylated PTTG1, Streptavidin-Alexa Fluor 647
T2 construct: Control on the protein microarray; also called bovine serum albumin
Description: The human Protoarray nc3.0 study was performed as described by the manufacturer (obtained from Invitrogen Corporation; Carlsbad, Calif.). […] Arrays were scanned by GenePix 4000B (obtained from Molecular Devices Corporation; Sunnyvale, Calif.), and images analyzed using ProtoArray Prospector (Invitrogen).

[2] = molecular target: control His-GST protein
[3] = molecular target: T1, His-tagged PTTG1

T2 sequence (P02769 25-607 limits assumed): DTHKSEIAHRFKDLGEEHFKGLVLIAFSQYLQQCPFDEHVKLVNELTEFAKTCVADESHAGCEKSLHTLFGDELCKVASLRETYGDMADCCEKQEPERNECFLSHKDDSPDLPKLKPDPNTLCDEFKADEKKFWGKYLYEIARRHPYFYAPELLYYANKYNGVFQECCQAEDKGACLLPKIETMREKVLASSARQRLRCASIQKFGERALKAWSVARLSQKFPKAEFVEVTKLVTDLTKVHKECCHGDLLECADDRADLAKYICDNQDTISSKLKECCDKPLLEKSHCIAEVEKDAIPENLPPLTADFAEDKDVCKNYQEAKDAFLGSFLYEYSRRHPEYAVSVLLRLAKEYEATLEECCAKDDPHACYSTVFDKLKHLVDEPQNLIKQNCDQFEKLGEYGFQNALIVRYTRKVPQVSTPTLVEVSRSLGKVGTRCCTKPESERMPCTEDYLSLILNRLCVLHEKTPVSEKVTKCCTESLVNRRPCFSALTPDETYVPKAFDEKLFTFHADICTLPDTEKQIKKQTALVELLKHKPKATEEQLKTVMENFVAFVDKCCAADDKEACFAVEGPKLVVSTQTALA

Binder | binding result [1] | Aurora Kinase A phosphorylation of histone H3 (Ser10), in vitro kinase assay, Western blot [2] | Aurora Kinase A phosphorylation of histone H3 (Ser10), in vitro kinase assay, Western blot [3]
pituitary tumor transforming gene 1 (PTTG1) protein (other, biotinylated with biotin-XX sulfosuccinimidyl ester (protein array); biotin-lysine labeled during synthesis (as prey in pull-down); endogenous and unlabeled in co-immunoprecipitation, Used as biotinylated probe on the array, as endogenous protein of HCT116 lysates in co-IP, and as in vitro translated prey in the pull-down; also called securin) MATLIYVDKENGEPGTRVVAKDGLKLGSGPSIKALDGRSQVSTPRFGKTFDAPPALPKATRKALGTVNRATEKSVKTKGPLKQKQPSFSAKKMTEKTVKAKSSVPASDDAYPEIEKFFPFNPLDFESFDLPEEHQIAHLPLSGVPLMILDEERELEKLFQLGPPSPVKMPSPPWESNLLQSPSSILSTLDVELPPVCCDIDI | no binding |  | 
GST-Aurora Kinase A (protein) MDRSKENCISGPVKATAPVGGPKRVLVTQQFPCQNPLPVNSGQAQRVLCPSNSSQRIPLQAQKLVSSHKPVQNQKQKQLQATSVPHPVSRPLNNTQKSKQPLPSAPENNPEEELASKQKNEESKKRQWALEDFEIGRPLGKGKFGNVYLAREKQSKFILALKVLFKAQLEKAGVEHQLRREVEIQSHLRHPNILRLYGYFHDATRVYLILEYAPLGTVYRELQKLSKFDEQRTATYITELANALSYCHSKRVIHRDIKPENLLLGSAGELKIADFGWSVHAPSSRRTTLCGTLDYLPPEMIEGRMHDEKVDLWSLGVLCYEFLVGKPPFEANTYQETYKRISRVEFTFPDFVTEGARDLISRLLKHNPSQRPMLREVLEHPWITANSSKPSNCQNKESASKQS |  | GST-His has no effect at the same concentration | Addition of PTTG1 dose-dependently inhibited Aurora Kinase A histone H3 phosphorylation

— patent US20110009473A1 (CEDARS SINAI MEDICAL CENTER, published 2011)
